# Test results taken from article PMC11121179.
# Biological target: PKM2 (pyruvate kinase M, isoform M2) (human (endogenous in HUVECs)) (UniProt P14618)
# Experiment: native gel or EMSA
# Chain of PKM2 (pyruvate kinase M, isoform M2), P14618 1-531 (enzyme; other documents disagree on this pair) (P14618 whole entry, canonical isoform): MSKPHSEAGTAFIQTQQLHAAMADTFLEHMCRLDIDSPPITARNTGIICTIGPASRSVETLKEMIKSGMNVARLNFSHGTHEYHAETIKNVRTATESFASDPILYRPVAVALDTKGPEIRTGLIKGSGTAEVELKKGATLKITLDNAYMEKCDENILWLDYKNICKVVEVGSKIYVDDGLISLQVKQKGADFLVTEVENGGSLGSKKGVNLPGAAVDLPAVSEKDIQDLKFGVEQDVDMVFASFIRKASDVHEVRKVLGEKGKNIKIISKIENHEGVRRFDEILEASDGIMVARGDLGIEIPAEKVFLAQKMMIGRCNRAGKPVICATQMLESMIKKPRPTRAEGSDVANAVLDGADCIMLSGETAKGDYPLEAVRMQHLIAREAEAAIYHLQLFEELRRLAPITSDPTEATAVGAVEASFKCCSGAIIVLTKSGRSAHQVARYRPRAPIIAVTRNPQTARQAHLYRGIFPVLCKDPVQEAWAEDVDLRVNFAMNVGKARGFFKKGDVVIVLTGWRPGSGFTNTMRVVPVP
substance,measurement,value
"PKM2 (pyruvate kinase M, isoform M2), P14618 1-531 (enzyme; other documents disagree on this pair)",stoichiometry N,2
